Patent US20030165506A1 (VLAAMS INTERUNIVERSITAIR INSTITUUT VOOR BIOTECHNOLOGIE VZW, published 2003)

B2: amino terminal part of β-catenin, prey fusion of plasmid pGAD424-ATβctn (other, UniProt P35222 14-172, looked up)
chain: MEPDRKAAVSHWQQQSYLDSGIHSGATTTAPSLSGKGNPEEEDVDTSQVLYEWEQGFSQSFTQEQVADIDGQYAMTRAQRVRAAMFPETLDEGMQIPSTQFDAAHPTNVQRLAEPSQMLKHAVVNLINYQDDAELATRAIPELTKLLNDEDQVVVNKAA
notes: domain: amino terminal fragment 239-717; also called amino terminal fragment 239-717 of β-catenin; not shown: fusion partner encoded by the prey vector pGAD424 (Clontech)
B4: human αT-catenin fused to the GAL4 binding domain, bait plasmid pGBKT7-ATCTN(179-3024) (other, not shown: large carriers)
chain: SAETPITLNIDPQDLQVQTFTVEKLLEPLIIQVTTLVNCPQNPSSRKKGRSKRASVLLASVEEATWNLLDKGEKIAQEATVLKDELTASLEEVRKESEALKVSAERFTDDPCFLPKREAVVQAARALLAAVTRLLILADMIDVMCLLQHVSAFQRTFETLKNVANKSDLQKTYQKLGKELENLDYLAFKRQQDLKSPNQRDEIAGARASLKENSPLLHSICSACLEHSDVASLKASKDTVCEEIQNALNVISNASQGIQNMTTPPEPQAATLGSALDELENLIVLNPLTVTEEEIRPSLEKRLEAIISGAALLADSSCTRDLHRERIIAECNAIRQALQDLLSEYMNNAGKKERSNTLNIALDNMCKKTRDLRRQLRKAIIDHVSDSFLDTTVPLLVLIEAAKNGREKEIKEYAAIFHEHTSRLVEVANLACSMSTNEDGIKIVKIAANHLETLCPQIINAALALAARPKSQAVKNTMEMYKRTWENHIHVLTEAVDDITSIDDFLAVSESHILEDVNKCIIALRDQDADNLDRAAGAIRGRAARVAHIVTGEMDSYEPGAYTEGVMRNVNFLTSTVIPEFVTQVNVALEALSKSSLNVLDDNQFVDISKKIYDTIHDIRCSVMMIRTPEELEDVSDLEEEHEVRSHTSIQTEGKTDRAKMTQLPEAEKEKIAEQVADFKKVKSKLDAEIEIWDDTSNDIIVLAKNMCMIMMEMTDFTRGKGPLKHTTDVIYAAKMISESGSRMDVLARQIANQCPDPSCKQDLLAYLEQIKFYSHQLKICSQVKAEIQNLGGELIMSALDSVTSLIQAAKNLMNAVVQTVKMSYIASTKIIRIQSPAGPRHPVVMWRMKAPAKKPLIKREKPEETCAAVRRGSAKKKIHPLQVMSEFRGRQIY

How the values were obtained:
[1] = molecular target: T1, human αT-catenin fused to the GAL4 binding domain, bait plasmid pGBT9-ATCTN(179-2860) (human, UniProt P04386 1-147 (Saccharomyces cerevisiae entry)); experiment: yeast two-hybrid, X-GAL staining of cotransformants (FIG. 7A)
T1 construct: also called αT-catenin bait fusion; hαT-catenin
From the text: (§1) The yeast strain Y190 (Matchmaker, Clontech, CA), which contains GAL4 promoter driven His and β-galactosidase reporters, was used for cotransformation of pGBT9 bait and pGAD424 prey plasmids, comprising the cloned inserts of interest.

[2] = molecular target: B4; experiment: yeast two-hybrid, Y190 strain, CPRG quantification (FIG. 7B)
Method: as §1
To assay the strength of interaction between α-catenins and β-catenin, β-galactosidase activity was assayed using chlorophenol red-β-D-galactopyranoside (CPRG, Boehringer Mannheim, Del.) as a substrate, according to the provided protocol (Clontech Yeast Protocols Handbook).

[3] = molecular target: T1, human αT-catenin fused to the GAL4 …; experiment: yeast two-hybrid, X-GAL staining of cotransformants
Method: (§2) (A) Introduction in the two-hybrid system by cotransformation of the respective fusion constructs. […] (B) Quantification of interaction strength between β-catenin and either αE- or αT-catenin in the yeast two-hybrid system. β-Galactosidase activity was measured using CPRG as a substrate.

[4] = molecular target: T2, human αE-catenin fused to the GAL4 DNA binding domain, bait plasmid pGBT9-αECTN (human, UniProt P04386 1-147; P35221 2-906); experiment: as above
T2 construct: no residue limits are printed; also called αE-catenin bait fusion
Method: as §2

[5] = molecular target: T3, human α-catulin fused to the GAL4 DNA binding domain, bait plasmid pGBT9-αctl(50-2264) (human, UniProt P04386 1-147; Q9UBT7 1-734); experiment: yeast two-hybrid, cotransformation of bait and prey, X-GAL staining (FIG. 7A)
T3 construct: Limits are printed only as cDNA positions (50-2264); also called α-catulin bait fusion
From the text: as §1

[6] = molecular target: T4, β-catenin prey fusion of plasmid pGAD424-βctn (UniProt P35222 14-172); experiment: cell-based or functional assay
T4 sequence (looked up): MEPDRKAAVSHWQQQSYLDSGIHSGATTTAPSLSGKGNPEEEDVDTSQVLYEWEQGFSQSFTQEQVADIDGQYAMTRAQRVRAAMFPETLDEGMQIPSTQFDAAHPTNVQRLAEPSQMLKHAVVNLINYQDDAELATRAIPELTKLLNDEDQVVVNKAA

[7] = molecular target: B2; experiment: cell-based or functional assay

B1: nearly full-length human plakoglobin, prey fusion of plasmid pGAD424-Plakoglobin(227-2340) (other, UniProt P14923 37-740, looked up)
chain: VSSKGIMEEDEACGRQYTLKKTTTYTQGVPPSQGDLEYQMSTTARAKRVREAMCPGVSGEDSSLLLATQVEGQATNLQRLAEPSQLLKSAIVHLINYQDDAELATRALPELTKLLNDEDPVVVTKAAMIVNQLSKKEASRRALMGSPQLVAAVVRTMQNTSDLDTARCTTSILHNLSHHREGLLAIFKSGGIPALVRMLSSPVESVLFYAITTLHNLLLYQEGAKMAVRLADGLQKMVPLLNKNNPKFLAITTDCLQLLAYGNQESKLIILANGGPQALVQIMRNYSYEKLLWTTSRVLKVLSVCPSNKPAIVEAGGMQALGKHLTSNSPRLVQNCLWTLRNLSDVATKQEGLESVLKILVNQLSVDDVNVLTCATGTLSNLTCNNSKNKTLVTQNSGVEALIHAILRAGDKDDITEPAVCALRHLTSRHPEAEMAQNSVRLNYGIPAIVKLLNQPNQWPLVKATIGLIRNLALCPANHAPLQEAAVIPRLVQLLVKAHQDAQRHVAAGTQQPYTDGVRMEEIVEGCTGALHILARDPMNRMEIFRLNTIPLFVQLLYSSVENIQRVAAGVLCELAQDKEAADAIDAEGASAPLMELLHSRNEGTATYAAAVLFRISEDKNPDYRKRVSVELTNSLFKHDPAAWEAAQSMIPINEPYGDDMDATYRPMYSSDVPLDPLEMHMDMDGDYPIDTYSDGLRPPYPTA
notes: domain: nearly full-length plakoglobin; not shown: fusion partner encoded by the prey vector pGAD424 (Clontech)
- binding result [1]: binds

Binder: B2
- binding result [2]: binds
- binding result [3]: binds
- binding result [4]: binds
- binding result [5]: no binding

B3: human αT-catenin fused to the LexA binding domain, bait plasmid pLexMG-ATCTN(179-2860) (other)
chain: MKALTARQQEVFDLIRDHISQTGMPPTRAEIAQRLGFRSPNAAEEHLKALARKGVIEIVSGASRGIRLLQEEEEGLPLVGRVAAGEPLLAQQHIEGHYQVDPSLFKPNADFLLRVSGMSMKDIGIMDGDLLAVHKTQDVRNGQVVVARIDDEVTVKRLKKQGNKVELLPENSEFKPIVVDLRQQSFTIEGLAVGVIRNGDWLSAETPITLNIDPQDLQVQTFTVEKLLEPLIIQVTTLVNCPQNPSSRKKGRSKRASVLLASVEEATWNLLDKGEKIAQEATVLKDELTASLEEVRKESEALKVSAERFTDDPCFLPKREAVVQAARALLAAVTRLLILADMIDVMCLLQHVSAFQRTFETLKNVANKSDLQKTYQKLGKELENLDYLAFKRQQDLKSPNQRDEIAGARASLKENSPLLHSICSACLEHSDVASLKASKDTVCEEIQNALNVISNASQGIQNMTTPPEPQAATLGSALDELENLIVLNPLTVTEEEIRPSLEKRLEAIISGAALLADSSCTRDLHRERIIAECNAIRQALQDLLSEYMNNAGKKERSNTLNIALDNMCKKTRDLRRQLRKAIIDHVSDSFLDTTVPLLVLIEAAKNGREKEIKEYAAIFHEHTSRLVEVANLACSMSTNEDGIKIVKIAANHLETLCPQIINAALALAARPKSQAVKNTMEMYKRTWENHIHVLTEAVDDITSIDDFLAVSESHILEDVNKCIIALRDQDADNLDRAAGAIRGRAARVAHIVTGEMDSYEPGAYTEGVMRNVNFLTSTVIPEFVTQVNVALEALSKSSLNVLDDNQFVDISKKIYDTIHDIRCSVMMIRTPEELEDVSDLEEEHEVRSHTSIQTEGKTDRAKMTQLPEAEKEKIAEQVADFKKVKSKLDAEIEIWDDTSNDIIVLAKNMCMIMMEMTDFTRGKGPLKHTTDVIYAAKMISESGSRMDVLARQIANQCPDPSCKQDLLAYLEQIKFYSHQLKICSQVKAEIQNLGGELIMSALDSVTSLIQAAKNLMNAVVQTVKMSYIASTKIIRIQSPAGPRHPVVMWRMKAPAKKPLIKREKPEETCAAVRRGSAKKKIHPLQVMSEFRGRQIY
- β-Galactosidase activity measured using CPRG as a substrate, yeast two-hybrid, L40 yeast strain [6]: ~4 fold against αE-catenin/β-catenin (pLexMG-αEctn plus pGAD424-βctn)

Binder: B4
- β-Galactosidase activity measured using CPRG as a substrate, yeast two-hybrid, Y190 yeast strain [7]: ~4 fold against αE-catenin/β-catenin (pGBT9-αEctn plus pGAD424-ATβctn)
